Experimental data taken from doi:10.1101/2023.06.21.544075 (bioRxiv, 2023).

B1: hOvst-cleaved hZP2-N1N2N3 (domain or fragment)
chain 1: not shown
chain 2: not shown
B2: mouse ZP2 NTR ΔN1 construct mZP2-N2N3 (domain or fragment, UniProt P20239 135-360, looked up)
chain: PAIQAETHEISEIVVCRRDLISFSFPQLFSRLADENQNVSEMGWIVKIGNGTRAHILPLKDAIVQGFNLLIDSQKVTLHVPANATGIVHYVQESSYLYTVQLELLFSTTGQKIVFSSHAICAPDLSVACNATHMTLTIPEFPGKLESVDFGQWSIPEDQWHANGIDKEATNGLRLNFRKSLLKTKPSEKCPFYQFYLSSLKLTFYFQGNMLSTVIDPECHCESPVS

Assays:
SEC-MALS = biological target: the molecule itself; assay: SEC-MALS
crystal structure = biological target: the molecule itself; assay: crystal structure

Protein	stoichiometry N (SEC-MALS)	stoichiometry N (crystal structure)
B1	2	
B2		2
